What was measured:
Assay in all cases: holdup assay
Set-up in all cases: key: below the threshold = too weak to quantify, mostly under pKd 3.1 to 4
APBA2_1, Q99767 = target: T1, APBA2_1, Q99767
T1 sequence (Q99767 563-664, limits assumed, looked up): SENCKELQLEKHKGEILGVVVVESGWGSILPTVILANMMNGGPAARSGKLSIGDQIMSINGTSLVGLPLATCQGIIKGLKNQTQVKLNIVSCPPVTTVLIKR

APBA2_2, Q99767 = target: T2, APBA2_2, Q99767
T2 sequence (Q99767 654-744, limits assumed, looked up): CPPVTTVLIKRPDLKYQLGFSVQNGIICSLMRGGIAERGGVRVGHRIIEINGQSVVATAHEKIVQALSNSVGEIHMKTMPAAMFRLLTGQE

ARHGEF11, O15085 = target: T3, ARHGEF11, O15085
T3 sequence (O15085 42-136, limits assumed, looked up): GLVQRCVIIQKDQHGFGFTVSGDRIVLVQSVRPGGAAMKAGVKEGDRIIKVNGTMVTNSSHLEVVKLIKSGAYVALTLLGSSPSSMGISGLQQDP

CASK, O14936 = target: CASK, O14936
DFNB31_1, Q9P202 = target: T4, DFNB31_1, Q9P202
T4 sequence (Q9P202 135-233, limits assumed, looked up): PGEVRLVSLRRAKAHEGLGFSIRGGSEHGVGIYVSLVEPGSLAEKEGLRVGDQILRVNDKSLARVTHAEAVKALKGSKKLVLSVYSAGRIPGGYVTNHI

DLG1_3, Q12959 = target: DLG1_3, Q12959
DLG3_3, Q92796 = target: T5, DLG3_3, Q92796
T5 sequence (Q92796 374-475, limits assumed, looked up): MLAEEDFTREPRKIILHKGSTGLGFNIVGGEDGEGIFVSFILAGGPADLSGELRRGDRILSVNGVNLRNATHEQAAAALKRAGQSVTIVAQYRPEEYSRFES

DLG4_1, P78352 = target: DLG4_1, P78352
GIPC2, Q8TF65 = target: GIPC2, Q8TF65
GORASP2, Q9H8Y8 = target: GORASP2, Q9H8Y8
GRID2IP_1, A4D2P6 = target: GRID2IP_1, A4D2P6
GRIP1_2, Q9Y3R0 = target: T6, GRIP1_2, Q9Y3R0
T6 sequence (Q9Y3R0 145-248, limits assumed, looked up): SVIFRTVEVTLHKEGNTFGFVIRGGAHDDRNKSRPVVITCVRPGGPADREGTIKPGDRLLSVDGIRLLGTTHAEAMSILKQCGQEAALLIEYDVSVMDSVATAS

GRIP1_3, Q9Y3R0 = target: T7, GRIP1_3, Q9Y3R0
T7 sequence (Q9Y3R0 247-346, limits assumed, looked up): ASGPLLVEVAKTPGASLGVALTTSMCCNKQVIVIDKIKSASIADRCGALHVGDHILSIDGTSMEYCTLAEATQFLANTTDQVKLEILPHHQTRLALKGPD

GRIP1_7, Q9Y3R0 = target: T8, GRIP1_7, Q9Y3R0
T8 sequence (Q9Y3R0 999-1096, limits assumed, looked up): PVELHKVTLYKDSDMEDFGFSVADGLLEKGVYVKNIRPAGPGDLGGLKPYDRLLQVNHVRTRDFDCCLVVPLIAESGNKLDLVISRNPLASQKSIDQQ

IL16_4, Q14005 = target: IL16_4, Q14005
LNX1_3, Q8TBB1 = target: LNX1_3, Q8TBB1
LNX2_3, Q8N448 = target: T9, LNX2_3, Q8N448
T9 sequence (Q8N448 463-564, limits assumed, looked up): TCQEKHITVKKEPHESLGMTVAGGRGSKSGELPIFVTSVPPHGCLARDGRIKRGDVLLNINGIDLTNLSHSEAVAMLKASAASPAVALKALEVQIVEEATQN

MAST2, Q6P0Q8 = target: MAST2, Q6P0Q8
MPP2, Q14168 = target: T10, MPP2, Q14168
T10 sequence (Q14168 180-250, limits assumed, looked up): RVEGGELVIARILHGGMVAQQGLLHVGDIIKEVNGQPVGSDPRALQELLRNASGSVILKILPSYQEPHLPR

MPP6, Q9NZW5 = target: T11, MPP6, Q9NZW5
T11 sequence (Q9NZW5 125-219, limits assumed, looked up): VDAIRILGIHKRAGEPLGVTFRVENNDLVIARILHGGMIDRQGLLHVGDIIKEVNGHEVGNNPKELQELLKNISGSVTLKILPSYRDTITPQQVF

NHERF3_4, Q5T2W1 = target: T12, NHERF3_4, Q5T2W1
T12 sequence (Q5T2W1 373-468, limits assumed, looked up): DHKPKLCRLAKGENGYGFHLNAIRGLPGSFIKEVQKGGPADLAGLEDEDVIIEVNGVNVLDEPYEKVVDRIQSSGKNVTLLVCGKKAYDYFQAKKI

NOS1, P29475 = target: NOS1, P29475
SNTB1, Q13884 = target: T13, SNTB1, Q13884
T13 sequence (Q13884 107-205, limits assumed, looked up): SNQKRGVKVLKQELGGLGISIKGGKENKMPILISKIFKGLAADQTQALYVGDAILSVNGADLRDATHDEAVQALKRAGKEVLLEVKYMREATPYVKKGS

TJP1_3, Q07157 = target: TJP1_3, Q07157
[1] = plain residues with an end cap or a label only (N-terminal biotin on a linker: ado-ado)
[2] = modified: phospho on T at position -2 from the C-terminal residue

GIPC2, Q8TF65, sequence (Q8TF65 112-203): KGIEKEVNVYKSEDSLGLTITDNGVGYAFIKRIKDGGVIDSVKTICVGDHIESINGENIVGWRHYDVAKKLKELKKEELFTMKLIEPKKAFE
TJP1_3, Q07157, sequence (Q07157 416-512): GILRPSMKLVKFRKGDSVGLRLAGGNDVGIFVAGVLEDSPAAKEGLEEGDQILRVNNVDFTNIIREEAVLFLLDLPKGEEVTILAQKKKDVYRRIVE
DLG1_3, Q12959, sequence (Q12959 457-571): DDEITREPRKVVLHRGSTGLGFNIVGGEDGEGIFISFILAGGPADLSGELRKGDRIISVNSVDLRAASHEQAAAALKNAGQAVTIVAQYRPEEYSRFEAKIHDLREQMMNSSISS
NOS1, P29475, sequence (P29475 9-101): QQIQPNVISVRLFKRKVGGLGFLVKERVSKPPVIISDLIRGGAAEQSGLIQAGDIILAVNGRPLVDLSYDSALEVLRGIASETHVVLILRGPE
CASK, O14936, sequence (O14936 487-570): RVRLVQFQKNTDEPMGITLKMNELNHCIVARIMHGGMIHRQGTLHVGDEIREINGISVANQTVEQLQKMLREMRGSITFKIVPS
MAST2, Q6P0Q8, sequence (Q6P0Q8 1099-1202): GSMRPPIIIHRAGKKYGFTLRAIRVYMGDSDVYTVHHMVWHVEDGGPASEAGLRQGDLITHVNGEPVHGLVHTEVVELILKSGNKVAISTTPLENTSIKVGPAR
IL16_4, Q14005, sequence (Q14005 1229-1329): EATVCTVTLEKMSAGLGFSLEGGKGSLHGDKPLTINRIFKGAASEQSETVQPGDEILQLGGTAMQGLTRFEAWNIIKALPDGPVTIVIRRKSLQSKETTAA
DLG4_1, P78352, sequence (P78352 62-152): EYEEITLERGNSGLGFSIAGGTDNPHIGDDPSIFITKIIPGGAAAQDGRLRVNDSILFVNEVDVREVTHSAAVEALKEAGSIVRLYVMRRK
GRID2IP_1, A4D2P6, sequence (A4D2P6 1-87): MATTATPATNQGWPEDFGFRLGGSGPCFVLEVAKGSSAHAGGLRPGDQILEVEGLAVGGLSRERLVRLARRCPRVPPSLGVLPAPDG
LNX1_3, Q8TBB1, sequence (Q8TBB1 500-596): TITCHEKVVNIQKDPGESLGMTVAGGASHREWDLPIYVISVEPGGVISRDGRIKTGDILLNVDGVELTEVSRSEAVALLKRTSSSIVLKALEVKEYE

B1: CACNA1A, O00555 (peptide)
chain: PYSESDDDWC
- pKd (APBA2_1, Q99767; [1]): below the threshold
- pKd (APBA2_2, Q99767; [1]): below the threshold
- pKd (ARHGEF11, O15085; [1]): 3.51
- pKd (CASK, O14936; [1]): 3.53
- pKd (DFNB31_1, Q9P202; [1]): below the threshold
- pKd (DLG1_3, Q12959; [1]): below the threshold
- pKd (DLG3_3, Q92796; [1]): below the threshold
- pKd (DLG4_1, P78352; [1]): below the threshold
- pKd (GIPC2, Q8TF65; [1]): below the threshold
- pKd (GORASP2, Q9H8Y8; [1]): 3.67
- pKd (GRID2IP_1, A4D2P6; [1]): below the threshold
- pKd (GRIP1_2, Q9Y3R0; [1]): 3.62
- pKd (GRIP1_3, Q9Y3R0; [1]): below the threshold
- pKd (GRIP1_7, Q9Y3R0; [1]): below the threshold
- pKd (IL16_4, Q14005; [1]): below the threshold
- pKd (LNX1_3, Q8TBB1; [1]): below the threshold
- pKd (LNX2_3, Q8N448; [1]): below the threshold
- pKd (MAST2, Q6P0Q8; [1]): below the threshold
- pKd (MPP2, Q14168; [1]): below the threshold
- pKd (MPP6, Q9NZW5; [1]): below the threshold
- pKd (NHERF3_4, Q5T2W1; [1]): below the threshold
- pKd (NOS1, P29475; [1]): 3.48
- pKd (SNTB1, Q13884; [1]): below the threshold
- pKd (TJP1_3, Q07157; [1]): below the threshold

B2: GPR12, P47775 (peptide)
chain: AQRARSPSDV
- pKd (APBA2_1, Q99767; [1]): below the threshold
- pKd (APBA2_2, Q99767; [1]): below the threshold
- pKd (ARHGEF11, O15085; [1]): below the threshold
- pKd (CASK, O14936; [1]): below the threshold
- pKd (DFNB31_1, Q9P202; [1]): below the threshold
- pKd (DLG1_3, Q12959; [1]): below the threshold
- pKd (DLG3_3, Q92796; [1]): below the threshold
- pKd (DLG4_1, P78352; [1]): below the threshold
- pKd (GIPC2, Q8TF65; [1]): below the threshold
- pKd (GORASP2, Q9H8Y8; [1]): below the threshold
- pKd (GRID2IP_1, A4D2P6; [1]): below the threshold
- pKd (GRIP1_2, Q9Y3R0; [1]): below the threshold
- pKd (GRIP1_3, Q9Y3R0; [1]): below the threshold
- pKd (GRIP1_7, Q9Y3R0; [1]): below the threshold
- pKd (IL16_4, Q14005; [1]): below the threshold
- pKd (LNX1_3, Q8TBB1; [1]): below the threshold
- pKd (LNX2_3, Q8N448; [1]): below the threshold
- pKd (MAST2, Q6P0Q8; [1]): below the threshold
- pKd (MPP2, Q14168; [1]): below the threshold
- pKd (MPP6, Q9NZW5; [1]): below the threshold
- pKd (NHERF3_4, Q5T2W1; [1]): below the threshold
- pKd (NOS1, P29475; [1]): 3.75
- pKd (SNTB1, Q13884; [1]): below the threshold
- pKd (TJP1_3, Q07157; [1]): below the threshold

B3: TRPV6, Q9H1D0 (peptide)
chain: EDGESWEYQI
- pKd (APBA2_1, Q99767; [1]): below the threshold
- pKd (APBA2_2, Q99767; [1]): below the threshold
- pKd (ARHGEF11, O15085; [1]): 3.63
- pKd (CASK, O14936; [1]): below the threshold
- pKd (DFNB31_1, Q9P202; [1]): below the threshold
- pKd (DLG1_3, Q12959; [1]): below the threshold
- pKd (DLG3_3, Q92796; [1]): below the threshold
- pKd (DLG4_1, P78352; [1]): below the threshold
- pKd (GIPC2, Q8TF65; [1]): below the threshold
- pKd (GORASP2, Q9H8Y8; [1]): 4.22
- pKd (GRID2IP_1, A4D2P6; [1]): below the threshold
- pKd (GRIP1_2, Q9Y3R0; [1]): below the threshold
- pKd (GRIP1_3, Q9Y3R0; [1]): below the threshold
- pKd (GRIP1_7, Q9Y3R0; [1]): below the threshold
- pKd (IL16_4, Q14005; [1]): 3.5
- pKd (LNX1_3, Q8TBB1; [1]): 3.52
- pKd (LNX2_3, Q8N448; [1]): below the threshold
- pKd (MAST2, Q6P0Q8; [1]): 4.78
- pKd (MPP2, Q14168; [1]): 3.57
- pKd (MPP6, Q9NZW5; [1]): 3.81
- pKd (NHERF3_4, Q5T2W1; [1]): below the threshold
- pKd (NOS1, P29475; [1]): below the threshold
- pKd (SNTB1, Q13884; [1]): below the threshold
- pKd (TJP1_3, Q07157; [1]): below the threshold

B4: HPV16-E6_-2P, P03126 (peptide)
chain: SSRTRRETQL
- pKd (APBA2_1, Q99767; [2]): below the threshold
- pKd (APBA2_2, Q99767; [2]): below the threshold
- pKd (ARHGEF11, O15085; [2]): below the threshold
- pKd (CASK, O14936; [2]): below the threshold
- pKd (DFNB31_1, Q9P202; [2]): below the threshold
- pKd (DLG1_3, Q12959; [2]): below the threshold
- pKd (DLG3_3, Q92796; [2]): below the threshold
- pKd (DLG4_1, P78352; [2]): below the threshold
- pKd (GIPC2, Q8TF65; [2]): below the threshold
- pKd (GORASP2, Q9H8Y8; [2]): below the threshold
- pKd (GRID2IP_1, A4D2P6; [2]): below the threshold
- pKd (GRIP1_2, Q9Y3R0; [2]): below the threshold
- pKd (GRIP1_3, Q9Y3R0; [2]): below the threshold
- pKd (GRIP1_7, Q9Y3R0; [2]): below the threshold
- pKd (IL16_4, Q14005; [2]): below the threshold
- pKd (LNX1_3, Q8TBB1; [2]): below the threshold
- pKd (LNX2_3, Q8N448; [2]): below the threshold
- pKd (MAST2, Q6P0Q8; [2]): 3.79
- pKd (MPP2, Q14168; [2]): below the threshold
- pKd (MPP6, Q9NZW5; [2]): below the threshold
- pKd (NHERF3_4, Q5T2W1; [2]): below the threshold
- pKd (NOS1, P29475; [2]): 3.63
- pKd (SNTB1, Q13884; [2]): below the threshold
- pKd (TJP1_3, Q07157; [2]): below the threshold
